This series is described as follows: yeast display, Sf9 membrane polyspecificity reagent, FACS + sequencing; frameworks hold sequencing errors. In a few lines:
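Genes from sorted yeast were amplified by colony PCR, read by MiSeq 2 × 250 sequencing and filtered on CDR length. These cells carried a synthetic nanobody library in Saccharomyces cerevisiae BJ5465 and were sorted by FACS into low and high (top ~1%) gates on anti-HA and streptavidin fluorescence. Polyreactivity is labelled according to the gate of origin.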
On to “QVQLVESGGGLVQAGGSLRLSCAASGFTLIYYAMGWYRQAPGKERELVAGISRGVSTSYADSVMGRFTISRDNAKNTVYLQMNSLKPEDTAVYYCAAEGSPVDQSSIYDYWGQGTQVTVSS”, for which the “polyreactivity (PSR sort gate)” value is given as “low polyreactivity”.

Take “QVQLVESGGGLVQAGGSLRLSCAASGFTLKSYAMGWYRQAPGKERELVASISRRGGSTYYADSVKGRFTISRDNAKNTVYLQMNSLKPEDTAVYYCNADYVRYPGNAYDYWGQGTQVTVSS”: the “polyreactivity (PSR sort gate)” value is “high polyreactivity”.

With “QVQLVESGGGLVQAGGSLRLSCAASGFTLKWYAMGWYRQAPGKERELVAAINDRGGNTYYADSVKGRFTISRDNAKNTVYLQMNSLKPEDTAVYYCAVRGKTYRPYYYWGQGTQVTVSS”, the “polyreactivity (PSR sort gate)” value is on record as “high polyreactivity”.

With “QVQLVESGGGLVQAGGSLRLSCAASGFTLLGNTMGWSRQAPGKERELVAAIRTNSGRTYYADSVKGRFTISRDNAKNTVYLQMNSLKPEDTAVYYCNAQSYRSDSAYHYNYDYWGQGTQVTVSS”, the “polyreactivity (PSR sort gate)” value is given as “high polyreactivity”.

Turning to “QVQLVESGGGLVQAGGSLRLSCAASGFTLLGNTMGWYRQAPGKERELVAAIRTNSGRTYYADSVKGRFTISRDNAKNTVYLQMNSLKPEDTAVYYCAKRYFSYLGREMDYWGQGTQVTVSS”, the “polyreactivity (PSR sort gate)” value is listed as “high polyreactivity”.

As to “QVQLVESGGGLVQAGGSLRLSCAASGFTLLPYAMGWYRQAPGKERELVAAISRRGVSTYYADSVKGRFTISRDNAKNTVYLQMNSLKPEDTAVYYCATRYFTGYGLRPQFYYWGQGSQVTVSS”, the “polyreactivity (PSR sort gate)” value was “high polyreactivity”.

Consider “QVQLVESGGGLVQAGGSLRLSCAASGFTLRLNAMGWYRQAPGKARELVAAITRSGGNTYYADSVKGRFTISRDNAKNTVYLEMNSLKPEDSAVYYCAVRQLDRRSPKYNYWGQGTQVTVSS”, for which the “polyreactivity (PSR sort gate)” value is reported as “high polyreactivity”.

On to “QVQLVESGGGLVQAGGSLRLSCAASGFTLSYYAMGWYRPAPGKEREFVAAIRTSGTSTYYADSVKGRFTISRDNAKNTVYLQMNSLKPEDTAVYYCAVARGSGWYWRSDYWGQGTQVTVSS”, for which the “polyreactivity (PSR sort gate)” value is “high polyreactivity”.

For the sequence “QVQLVESGGGLVQAGGSLRLSCAASGFTLVYYVMGWYRQAPGKERELVARISRGGSTNYADSVKGRFTISRDNAKNTVYLQMNSLKPEDTAVYYCAARRTSWQGFNYWGQGTQVTVAS”, the “polyreactivity (PSR sort gate)” value is “high polyreactivity”.

Turning to “QVQLVESGGGLVQAGGSLRLSCAASGFTLYSNTMGWYRQAPGKERELVAAINYSGGSTYYADSVKGRFTISRDNAKNTVYLQMNSLKPQDTAVYYCATDLHWLVTKYGYWGQGTQVTVSS”, the “polyreactivity (PSR sort gate)” value was “low polyreactivity”.

“QVQLVESGGGLVQAGGSLRLSCAASGFTRIYAMGWYRQAPGKERELVAAISQRGGRTYYADSVKGRFTISRDNAKNTVYLQMNSLKPEDTAVYYCNADRRSYNYPEYEYDYWGQGTQVTVSS”: the “polyreactivity (PSR sort gate)” value is on record as “high polyreactivity”.

In the case of “QVQLVESGGGLVQAGGSLRLSCAASGFTRVVSTMGWYRQAPGKERELVATISYTDGSTYYADAVKGRFTISRDNAKNTDYLQMTSLKPEDTADYYCNASYPSSSYSYHVDYWGQGTQVTVSS”, the “polyreactivity (PSR sort gate)” value is “low polyreactivity”.

For “QVQLVESGGGLVQAGGSLRLSCAASGFTSAPNAMGWYRQAPGKERELVAAITSSTGRTRYADSVKGRFTISRDNAKNTVYLQMNSLKPEDTAVYYCAVKLLFRGTYEYWGQGTQVTVSS”, the “polyreactivity (PSR sort gate)” value is on record as “low polyreactivity”.

Consider “QVQLVESGGGLVQAGGSLRLSCAASGFTSGRNTMGWYRQAPGKERELVAAISSSGGRTYYADSVKGRFTISRDNAKKTVYLQKHRLKAEDPAVYYCNVAGAIKRTIGDYEYWGQGTQVTVSS”, for which the “polyreactivity (PSR sort gate)” value is given as “high polyreactivity”.

“QVQLVESGGGLVQAGGSLRLSCAASGFTSNYYAMGWYRQAPGKERELVAAITTGGSTHYADSVKGRFTISRDNAKNTVYLQMNSLKPEDTAVYYCAAGTNRQQQRYFHPGGYYQYNYWGQGSQVTVSS”: the “polyreactivity (PSR sort gate)” value is listed as “low polyreactivity”.

For the sequence “QVQLVESGGGLVQAGGSLRLSCAASGFTSQYYAMGWYRQAPGKERELVAAITLRDGSTYYADSVKGRFTISRDNAKNTVYLQMNSMKPEDTAVYYCNTDATSDPYGFGYWGQGTQVTVSS”, the “polyreactivity (PSR sort gate)” value is reported as “low polyreactivity”.

On to “QVQLVESGGGLVQAGGSLRLSCAASGFTSRKNAMGWYSQAPGKERELVAAITQSSGRTYYADSVKGRFTISRDNAKNTVYLQMNSLKPEDTAVYYCAARRGGEDDYWGQGTQVTVSS”, for which the “polyreactivity (PSR sort gate)” value is on record as “low polyreactivity”.

As for “QVQLVESGGGLVQAGGSLRLSCAASGFTSWYAMGWYRQAPGKERELVAAISSGGSTNYADSVKGRFTISRDNAKNTVYLQLNSLKPEDTAVYYCNAEGYETGVPYFGFYFWGQGTQVTVSS”, the “polyreactivity (PSR sort gate)” value is reported as “low polyreactivity”.

“QVQLVESGGGLVQAGGSLRLSCAASGFTSYLYTMGWYRQAPGKERELVATITLRGGSTYYADSVKGRFTISRDNAKNTVYLQMNSLKPEDTAVYYCAAPAYLTSHSRYDYWGQGTQVSVSS”: the “polyreactivity (PSR sort gate)” value was “high polyreactivity”.

For “QVQLVESGGGLVQAGGSLRLSCAASGFTVYSYPLGWYRQAPGKERELVAAITRSGGITYYADSVKGRFTISRDNAKNTVYLQMNSLKPEDTAVYYCNAYRGGLSSEHYYWGQGTQVTVSS”, the “polyreactivity (PSR sort gate)” value is listed as “high polyreactivity”.

For “QVQLVESGGGLVQAGGSLRLSCAASGFTYFQYAMGWYRQAPGKERELVAAITSGVSTNYADSVKGRFTISRDNAKNTVYLQMNSLKPEDTAVYYCAADPRYLQSWRGEFAGEYWGQGTQVTVSS”, the “polyreactivity (PSR sort gate)” value is listed as “low polyreactivity”.

As to “QVQLVESGGGLVQAGGSLRLSCAASGFTYFYAMGWYRQAPGKERELVATITINGGRTYYADSVKGRFTISRDNAKNTVYLQMNSLKPEDTAVYYCAAKSWYSYGDWGYYSWGQGTQVTVSS”, the “polyreactivity (PSR sort gate)” value was “high polyreactivity”.

As for “QVQLVESGGGLVQAGGSLRLSCAASGFTYRTNAMGWYRQAPGKERELVAAISTGARTYYADSVKGRFTISRDNAKNTVYLQMNSLKPEDTAVYYCNKVLRRFLSRYDYWGQGTQVTVSS”, the “polyreactivity (PSR sort gate)” value was “high polyreactivity”.

“QVQLVESGGGLVQAGGSLRLSCAASGFTYRTYAMGWYRQAPGKERELVAAITVSGGTYYADSVKGRFTISRDNAKNTVYFQMNSLKPEDTAVYYCTAKRFRTGFDYWGQGTQVTVSS”: the “polyreactivity (PSR sort gate)” value was “low polyreactivity”.

As to “QVQLVESGGGLVQAGGSLRLSCAASGFTYYHNVMGWYRQAPGKERELVAAISSGGDTTYYADSVKGRFTISRDNAKNTVSLQKNSLKPEDTAVYYCNADRQIGRYYHFDYWGQGTQVSVSS”, the “polyreactivity (PSR sort gate)” value is “high polyreactivity”.

Consider “QVQLVESGGGLVQAGGSLRLSCAASGFVYYVMGWYRQAPGKERELVAAISKGGGRTYYADSVKGRFTISRDNAKNTVYLQMNSLKPEDTAVYYCNADGGLPKYDYWGQGTQVTVSS”, for which the “polyreactivity (PSR sort gate)” value is recorded as “high polyreactivity”.

“QVQLVESGGGLVQAGGSLRLSCAASGFYNTMGWYRQAPGKERELVAAISTGGITNYADSVKGRFTISRDNSKNTFYFQMKSLIPEDTAVYYCAADGYSTVSSTYDYWGQGTQVTVSS”: the “polyreactivity (PSR sort gate)” value is recorded as “low polyreactivity”.

Regarding “QVQLVESGGGLVQAGGSLRLSCAASGGIFAANAMGWYRPAPGKERELVAAISRSGGRTYYADSVKGRFTISRDNAKNTVYLQMNSLKPEDTAVYYCAATYQASNAWYDYWGQGTQVTVSS”, the “polyreactivity (PSR sort gate)” value is “high polyreactivity”.

Consider “QVQLVESGGGLVQAGGSLRLSCAASGGIFAPYAMGWYRQAPGKERELVADITSEGGSTYYADSVKGRFTISRDIEKNTVYLQMNSLKPEDTAVYYCAAEQRYCWWGHPGDYWGKGTQVTVSS”, for which the “polyreactivity (PSR sort gate)” value is reported as “low polyreactivity”.

For the sequence “QVQLVESGGGLVQAGGSLRLSCAASGGIFAVYAMGWYRQAPGKERELVAAITWRGGSTRYADSVKGRFTISRDNAKNTVHLQMNSLIPEDTAVYYCAVRSTGYPSRYYYWGQGTQVTVSS”, the “polyreactivity (PSR sort gate)” value was “high polyreactivity”.

These data come from the nanobody polyreactivity screen of Harvey et al. (2022).
